Publication PMC5297857

Target: soluble form of human TNFα (aa 77–233), wild-type (human)
Assay: crystal structure; purified TNFα and certolizumab Fab mixed in a 1:1 molar ratio, complex isolated by size exclusion chromatography (20 mM Tris pH 8.0, 300 mM NaCl); hanging-drop crystals at 20 °C; 2.89 Å, three copies in the asymmetric unit

stoichiometry N: 3
Substance: soluble form of human TNFα (aa 77–233), wild-type (ligand)
